Measured values taken from patent US20200140552A1 (Sanofi, published 2020).
Changes are numbered by the printed parent chain.

What was measured:
hCD38-his (SEQ ID NO: 2) = target: T1, hCD38-his (SEQ ID NO: 2) (human, UniProt P28907 45-300); assay: SPR (summary table; Table K value rounded)
T1 construct: also called human CD38-histag (ID2); soluble extracellular domain of humanCD38

[1] = target: T2, human CD38 expressed on the surface of recombinant murine preB::300.19 cells (human, UniProt P28907 1-300); assay: flow cytometry on CD38-expressing murine preB::300.19 cells, apparent KD
T2 construct: whole, on cells; also called hCD38-expressing cells; cells expressing human CD38

cCD38-his (SEQ ID NO: 4) = target: T3, cCD38-his (SEQ ID NO: 4) (cynomolgus monkey, UniProt Q5VAN0 46-301); assay: SPR (summary table; Table K value rounded)
T3 construct: also called cyno CD38-histag (ID3); soluble extracellular domain of cynomolgusCD38

[2] = target: T4, recombinant human CD38 (SPR antigen of Example 2) (human, UniProt P28907 43-300); assay: SPR, target binding without other targets present
[3] = target: T4, recombinant human CD38 (SPR antigen of …); assay: SPR, target binding with the other two targets in saturation
[4] = target: T2, human CD38 expressed on the surface of …; assay: flow cytometry on hCD38-expressing murine preB::300.19 cells, apparent KD (called EC50 in paragraph 335)

B1: antiCD38_C2-CD38-1_VH5-VL3 (antibody, human IgG1, kappa, V domains shown)
VH: QVQLVQSGAEVVKSGASVKVSCKASGYTFTSFNMHWVKEAPGQGLEWIGYIYPGNGGTNYNQKFQGRATLTADTSASTAYMEISSLRSEDTAVYFCARTGGLRRAYFTYWGQGTLVTVSS
VL: DIVLTQSPATLSLSPGERATISCRASESVDSYGNGFMHWYQQKPGQPPRLLIYLASSRATGIPARFSGSGSGTDFTLTISPLEPEDFAVYYCQQNKEDPWTFGGGTKLEIKR
B1 was tested. Which Kd (hCD38-his (SEQ ID NO: 2)) did it give?
The Kd was 0.82 nM.

What about the Kd [1] of the same binder?
The Kd was 0.55 nM.

B2: antiCD38_C2-CD38-1_VH6-VL3 (antibody, human IgG1, kappa, V domains shown)
VH: B1 VH with S14P, V20M, G44R
VL: B1 VL
How did the Kd (hCD38-his (SEQ ID NO: 2)) turn out when B2 was run?
The Kd was 0.31 nM.

What about the Kd (cCD38-his (SEQ ID NO: 4)) of the same binder?
Its Kd is 0.56 nM.

B3: CD38SB19xCD28supxCD3mid trispecific binding protein (other)
VH 1: QVQLVQSGAEVVKPGASVKVSCKASGYTFTSYYIHWVRQAPGQGLEWIGSIYPGNVNTNYAQKFQGRATLTVDTSISTAYMELSRLRSDDTAVYYCTRSHYGLDWNFDVWGKGTTVTVSS
VL 1: DIQMTQSPSSLSASVGDRVTITCQASQNIYVWLNWYQQKPGKAPKLLIYKASNLHTGVPSRFSGSGSGTDFTLTISSLQPEDIATYYCQQGQTYPYTFGQGTKLEIK
VH 2: QVQLVESGGGVVQPGRSLRLSCAASGFTFTKAWMHWVRQAPGKQLEWVAQIKDKSNSYATYYADSVKGRFTISRDDSKNTLYLQMNSLRAEDTAVYYCRGVYYALSPFDYWGQGTLVTVSS
VL 2: DIVMTQTPLSLSVTPGQPASISCKSSQSLVHNNANTYLSWYLQKPGQSPQSLIYKVSNRFSGVPDRFSGSGSGTDFTLKISRVEAEDVGVYYCGQGTQYPFTFGSGTKVEIK
VH 3: QVQLVQSGAEVAKPGTSVKLSCKASGYTFTDYWMQWVKQRPGQGLEWIGTIYPGDGDTGYAQKFQGKATLTADKSSKTVYMHLSSLASEDSAVYYCARGDYYGSNSLDYWGQGTSVTVSS
VL 3: DIVMTQSHLSMSTSLGDPVSITCKASQDVSTVVAWYQQKPGQSPRRLIYSASYRYIGVPDRFTGSGAGTDFTFTISSVQAEDLAVYYCQQHYSPPYTFGGGTKLEIK
For B3, which Kd [2] is on record?
Its Kd is 1.75 nM.

And the Kd [3]?
Its Kd is 2.42 nM.

What about the Kd [4] of the same binder?
The Kd was 4 nM.
